For series [1], the target named is T1, DRB0118 (Deinococcus radiodurans, UniProt Q9RZK8).
T1 construct: gene DR_B0118; residues 58-337, signal peptide removed; N-terminal MBP fusion kept, 6xHis cut by TEV; codon-optimized, E. coli BL21(DE3); mainly dimer in solution
T1 sequence (Q9RZK8 58-337): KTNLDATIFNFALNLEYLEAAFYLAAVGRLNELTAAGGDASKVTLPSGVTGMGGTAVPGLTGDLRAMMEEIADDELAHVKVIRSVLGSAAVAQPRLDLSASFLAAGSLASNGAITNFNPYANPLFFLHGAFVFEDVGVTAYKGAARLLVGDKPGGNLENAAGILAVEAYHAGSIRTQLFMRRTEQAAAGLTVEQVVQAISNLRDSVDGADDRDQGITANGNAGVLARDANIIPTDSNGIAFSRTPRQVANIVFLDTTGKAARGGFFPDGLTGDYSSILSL
Briefly: malachite green phosphate release. The format is biochemical. Particulars: 1 mM substrate, 20 mM Tris-HCl pH 8.0, 37 °C, 1 h; MBP fusion.

Series [2] concerns the molecule itself. Briefly: crystal structure; sitting-drop vapor diffusion at 20 °C, RvFeMP‐1 at 10 mg/mL; conditions A (MES pH 6.0, PEG 20000), B (MgCl2, Tris–HCl pH 8.2, PEG 4000) and C (sodium thiocyanate, sodium acetate pH 4.0, PEG4000); dimer of two protomers.
Series [3] concerns the molecule itself. In words: native gel or EMSA; high‐resolution clear native PAGE of the purified sample (EzApply Native, EzStandard Native, EzRun ClearNative, ATTO). On the technique in general: Mobility shift assays separate free from complexed probe on a gel.

For `O=[N+]([O-])c1ccc(OP(=O)(O)O)cc1` [pNPP, p-nitrophenyl phosphate], the “activity (nmol/min/mg)” value in series [1] is “can also function as a phosphatase and the activity toward pNPP was higher”.

B1: RvFeMP‐1 (Ramazzottius varieornatus Ferritin‐like metabolite phosphatase 1), residues 21–316 (enzyme)
chain: GGNRGMSRNQDAYAEKMDMTLDALNFLLGVEHLASAFYVQAVNNFTADDFKAAGLAQRDYDQFVGVRNNEVDHRDTLISVIKSLGGKPNPPCKYTFPVTDVASVLKVSRTLENADKPAYLGALRDIKSVELRTSVQGALSGDSAHAAFFAYLTGKAPAPGPVDGPLTQRHIATLAQDFIVSCPYPAPKPFPKLTLSPQSGPVGTVVATTCAQDVDTNGVMCAIISGNQGTLMQRPGQAKDGSGAATCTIPPGVKGILFIAWVRGRDVLNVGVDDSSTVCGPNYFLLSALGDAVPGV
notes: RvFeMP‐1 (RvY_06210 product) of Ramazzottius varieornatus strain YOKOZUNA‐1, residues 21–316, without the predicted 20-residue secretory signal peptide; After TEV cleavage one G of the recognition site probably stays at the N-terminus (surmised); also called RvY_06210 product; Tar‐fer; source: E. coli Shuffle T7, purified (HiTrap TALON, TEV protease, HisTrap flowthrough, Superdex 200 SEC); not …
As for B1, the binding result in series [2] is listed as “binds”.

B2: MBP‐DRB0118 (DRB0118 residues 58–337 fused to maltose‐binding protein) (enzyme, Deinococcus radiodurans R1)
chain: T1 sequence (Q9RZK8 58-337)
notes: DRB0118 of Deinococcus radiodurans R1, residues 58–337, without the signal peptide region; codon-optimised synthetic DNA; The MBP carrier (amplified from pMAL‐c5X) stands N-terminal of DRB0118 and was kept; After TEV cleavage one G of the site probably stays before MBP (surmised); source: E. coli BL21(DE3), purified (HiTrap TALON, TEV protease, HisTrap flowthrough, Superdex 200 SEC); not shown: …
Turning to B2, the “stoichiometry N” value in series [3] is 2.

The term stoichiometry N denotes the number of molecules, sites or subunits per partner or assembly.

For the origin of these results see publication PMC11616004, “Metabolite phosphatase from anhydrobiotic tardigrades” (The Febs Journal, 2024).
